The source of these data is patent publication US20260152568A1 (NECTIN THERAPEUTICS, published 2026).

The target in assay [1] is T1, human PVR (SPR of the humanized variants, Example 5) (human, UniProt P15151 21-343).
T1 sequence: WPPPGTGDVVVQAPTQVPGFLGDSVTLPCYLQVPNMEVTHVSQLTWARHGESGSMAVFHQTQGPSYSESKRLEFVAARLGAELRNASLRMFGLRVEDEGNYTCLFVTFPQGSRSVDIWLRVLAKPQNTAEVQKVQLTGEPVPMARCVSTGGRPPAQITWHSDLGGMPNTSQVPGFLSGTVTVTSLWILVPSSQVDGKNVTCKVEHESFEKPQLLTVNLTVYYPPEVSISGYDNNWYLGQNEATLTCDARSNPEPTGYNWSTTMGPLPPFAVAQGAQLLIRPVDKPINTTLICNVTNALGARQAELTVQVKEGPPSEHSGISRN
In words: SPR.

Assay [2] deals with T1, human PVR (SPR of the humanized …). In words: SPR; relative to N56E VH0/Vκ0.
The target of assay [3] is human poliovirus receptor (PVR, CD155) expressed on cells (human) (UniProt P15151). The assay is described as follows: flow cytometry, binding to PVR-expressing HEK 293 cells.
Assay [4] shares this target. The assay is described as follows: flow cytometry, binding to PVR-expressing HEK 293 cells; relative to N56E VH0/Vκ0.
In assay [5] the target is T2, PVR conjugated to Histidine tag (PVR-HIS, Sino Cat. no. 10109-H08H) (Homo sapiens (Human), UniProt P15151 21-343).
T2 construct: Bought reagent; also called PVR-HIS tagged
T2 sequence: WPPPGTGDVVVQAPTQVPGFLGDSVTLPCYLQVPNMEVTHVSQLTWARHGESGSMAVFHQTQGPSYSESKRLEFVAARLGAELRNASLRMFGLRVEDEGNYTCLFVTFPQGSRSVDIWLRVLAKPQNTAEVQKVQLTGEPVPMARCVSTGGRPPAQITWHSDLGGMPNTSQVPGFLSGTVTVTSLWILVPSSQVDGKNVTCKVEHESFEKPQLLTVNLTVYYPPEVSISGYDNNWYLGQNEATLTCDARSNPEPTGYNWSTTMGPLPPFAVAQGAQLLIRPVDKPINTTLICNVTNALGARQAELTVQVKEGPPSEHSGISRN
The assay is described as follows: SPR (Biacore T200); KD divided by the KD of VH0/Vκ0 WT. On the procedure:
FIGS. 1A-1B. Affinity and competition assays of N56 substitutions. FIG. 1A. […] Biacore assay showing relative and absolute affinity of the N56 substitutions (hIgG4 variants) to PVR-HIS tagged (Sino Cat. no. 10109-H08H). Affinity shift of >25% were considered significant.
(§1) Seven chimeric variants were generated by introducing a point mutation at residue asparagine N56. […] Binding was tested for the analyte PVR conjugated to Histidine tag (PVR-HIS, Sino Cat. no. 10109-H08H). Dilution range: Five point two-fold dilution from 50 nM to 3.125 nM. Conditions used: Instrument: Biacore T200 (serial no. 1909913) running Biacore T200 Evaluation Software V2.0.1. Running buffer: HBS-P+, 300 mM NaCl, 1 mg/ml BSA. Flow rate: […]. Association: 350 s, Dissociation: 800 s. Regeneration: 10 mM glycine pH 1.5. Analysis: 1:1 binding.

The target of assay [6] is T3, chlorocebus (African green monkey) PVR expressed on Vero cells (chlorocebus (African green monkey), UniProt P32506 21-417).
T3 construct: whole, on cells; also called chlorocebus PVR
T3 sequence (looked up): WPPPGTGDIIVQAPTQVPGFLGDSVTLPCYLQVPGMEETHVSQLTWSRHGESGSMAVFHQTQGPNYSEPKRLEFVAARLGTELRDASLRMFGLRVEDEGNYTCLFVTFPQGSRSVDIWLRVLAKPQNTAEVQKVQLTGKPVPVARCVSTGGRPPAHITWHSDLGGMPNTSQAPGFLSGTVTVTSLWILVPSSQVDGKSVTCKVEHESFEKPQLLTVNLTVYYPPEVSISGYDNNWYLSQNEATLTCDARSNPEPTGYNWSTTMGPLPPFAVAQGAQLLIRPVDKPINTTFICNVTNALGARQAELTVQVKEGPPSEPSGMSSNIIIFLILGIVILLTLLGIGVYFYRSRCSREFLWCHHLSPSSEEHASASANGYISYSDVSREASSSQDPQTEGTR
In words: flow cytometry, 10 ug/ml antibody on Vero cells; MFI divided by the MFI of K0. As for the experimental part:
FIGS. 2A-2B. […] To assess maximal binding, saturating dose (10 ug/ml) of the N56 variant monoclonal antibodies (shown at the X axis) were used to stain PVR-expressing cells, and mean fluorescence intensity (MFI) values were determined by FACS analysis. […] (FIG. 2A) NCI-H1975 (human lung) cells and (FIG. 2B) Vero (African green monkey kidney) cells. Affinity shifts of >25% were considered significant.
The binding of the N56 substitution variant antibodies to cell bound PVR of human (protein id: Q92692) and chlorocebus (African green monkey, protein id: UniProtKB—P32506) was examined. FIG. 2A depicts the relative binding of all variants, which were added in saturating concentration (10 ug/ml), to NCI-H1975 cells expressing human PVR. FIG. 2B depicts the relative binding of all variants, which were added in saturating concentration (10 ug/ml), to Vero cells expressing chlorocebus PVR. […] Cell binding of the Abs was analyzed by FACS.

In assay [7] the target is T2, PVR conjugated to Histidine tag …. The assay is described as follows: SPR (Biacore T200), antibody captured on Protein A chip, PVR-HIS as analyte, 1:1 binding. As for the experimental part:
as §1

B1: humanized 5B9 variant VH3/VK2 (antibody, V domains shown)
VH: QVQLVQSGAEVKKPGASVKVSCKATGYTFSNYWIEWIKQAPGQGLEWIGEIFPGSGRINFNEKFKGRVTFTADTSISTTYMELSRLRSDDTAVYYCARTKIYGNSFDYWGQGTLVTVSS
VL: DIQMTQSPSSLSASVGDRVTITCKASQDVGTAVVWYQQKPGKAPKLLIYWASSRHEGVPDRFSGSGSGTDFTLTISSLQPEDFADYFCQQYSRYPLTFGQGTKLEIK
B1 showed a Kd in assay [1] of 4.32 nM. Further, the “Relative KD” value in assay [2] came out at 0.78. Besides, in assay [3], the EC50 turned out to be 0.52 nM. This molecule also came in with a Relative EC50 in assay [4] of 0.66.

B2: humanized 5B9 variant VH5/VK3 (antibody, V domains shown)
VH: QVQLVQSGAEVKKPGASVKVSCKATGYTFSNYWIEWVRQAPGQGLEWMGEIFPGSGRINFNEKFKGRVTFTADTSISTAYMELSRLRSDDTAVYYCARTKIYGNSFDYWGQGTLVTVSS
VL: DIQMTQSPSSLSASVGDRVTITCRASQDVGTAVVWYQQKPGKAPKLLIYWASSRHEGVPSRFSGSGSGTDFTLTISSLQPEDFATYFCQQYSRYPLTFGQGTKLEIK
On to B2, for which binding in assay [1] was characterised by a dissociation constant (Kd) of 7.41 nM. Moreover, the “Relative KD” value in assay [2] was found to be 1.34. This molecule also displayed an EC50 in assay [3] of 0.57 nM. This molecule also gave a Relative EC50 in assay [4] of 0.72.

B3: humanized 5B9 variant VH3/VK3 (antibody, V domains shown)
VH: QVQLVQSGAEVKKPGASVKVSCKATGYTFSNYWIEWIKQAPGQGLEWIGEIFPGSGRINFNEKFKGRVTFTADTSISTTYMELSRLRSDDTAVYYCARTKIYGNSFDYWGQGTLVTVSS
VL: DIQMTQSPSSLSASVGDRVTITCRASQDVGTAVVWYQQKPGKAPKLLIYWASSRHEGVPSRFSGSGSGTDFTLTISSLQPEDFATYFCQQYSRYPLTFGQGTKLEIK
B3 gave a Kd in assay [1] of 5.42 nM. The “Relative KD” value in assay [2] came out at 0.98. Moreover, in assay [3], the EC50 was found to be 0.53 nM. The molecule also displayed a Relative EC50 in assay [4] of 0.68.

B4: humanized 5B9 variant VH2/VK3 (antibody, V domains shown)
VH: QVQLVQSGAEVKKPGASVKISCKATGYTFSNYWIEWIKQAPGQGLEWIGEIFPGSGRINFNEKFKGRATFTADTSIDTTYMELSRLRSDDTAVYYCARTKIYGNSFDYWGQGTLVTVSS
VL: DIQMTQSPSSLSASVGDRVTITCRASQDVGTAVVWYQQKPGKAPKLLIYWASSRHEGVPSRFSGSGSGTDFTLTISSLQPEDFATYFCQQYSRYPLTFGQGTKLEIK
B4 returned a Kd in assay [1] of 5.14 nM. In assay [2], the “Relative KD” value was 0.93. In assay [3], this molecule gave a concentration for a half-maximal effect (EC50) of 0.6 nM. The same molecule registered a Relative EC50 in assay [4] of 0.76.

B5: humanized 5B9 variant VH4/VK3 (antibody, V domains shown)
VH: QVQLVQSGAEVKKPGASVKVSCKATGYTFSNYWIEWVRQAPGQGLEWIGEIFPGSGRINFNEKFKGRVTFTADTSISTTYMELSRLRSDDTAVYYCARTKIYGNSFDYWGQGTLVTVSS
VL: DIQMTQSPSSLSASVGDRVTITCRASQDVGTAVVWYQQKPGKAPKLLIYWASSRHEGVPSRFSGSGSGTDFTLTISSLQPEDFATYFCQQYSRYPLTFGQGTKLEIK
Take B5: the Kd in assay [1] was determined as 5.11 nM. Moreover, the “Relative KD” value in assay [2] was found to be 0.92. The same molecule showed a concentration giving a half-maximal response (EC50) in assay [3] of 0.59 nM. The same molecule came in with a Relative EC50 in assay [4] of 0.75.

B6: humanized 5B9 variant VH5/VK2 (antibody, V domains shown)
VH: QVQLVQSGAEVKKPGASVKVSCKATGYTFSNYWIEWVRQAPGQGLEWMGEIFPGSGRINFNEKFKGRVTFTADTSISTAYMELSRLRSDDTAVYYCARTKIYGNSFDYWGQGTLVTVSS
VL: DIQMTQSPSSLSASVGDRVTITCKASQDVGTAVVWYQQKPGKAPKLLIYWASSRHEGVPDRFSGSGSGTDFTLTISSLQPEDFADYFCQQYSRYPLTFGQGTKLEIK
The molecule B6 registered a Kd in assay [1] of 5.68 nM. Further, the “Relative KD” value in assay [2] is 1.03. The EC50 in assay [3] was 0.64 nM. The Relative EC50 in assay [4] is 0.82.

B7: humanized 5B9 variant VH2/VK2 (antibody, V domains shown)
VH: QVQLVQSGAEVKKPGASVKISCKATGYTFSNYWIEWIKQAPGQGLEWIGEIFPGSGRINFNEKFKGRATFTADTSIDTTYMELSRLRSDDTAVYYCARTKIYGNSFDYWGQGTLVTVSS
VL: DIQMTQSPSSLSASVGDRVTITCKASQDVGTAVVWYQQKPGKAPKLLIYWASSRHEGVPDRFSGSGSGTDFTLTISSLQPEDFADYFCQQYSRYPLTFGQGTKLEIK
In assay [1], B7 came in with a Kd of 4.67 nM. Also, the “Relative KD” value in assay [2] is 0.84. In addition, the concentration for a half-maximal effect (EC50) in assay [3] was found to be 0.64 nM. In assay [4], this molecule showed a Relative EC50 of 0.81.

B8: chimeric anti-PVR antibody 5B9 wild type, IgG4 (S241P), VH0/VK0 (antibody, V domains shown)
VH: QVQLQQSGAELMKPGASVKISCKATGYTFSNYWIEWIKQRPGHGLEWIGEIFPGSGRINFNEKFKGKATFTADTSSDTTYMQLSSLTSADSAVYYCARTKIYGNSFDYWGQGTTLTVSP
VL: DIMMTQSHKFMSTSVGDRVNITCKASQDVGTAVVWYQQKPGQSPKLLIYWASSRHNGVPDRFTGSGSGTDFTLTISNVQSEDLSDYFCQQYSRYPLTFGAGTKLELK
notes: Mouse/human chimeric antibody with human IgG4 (S241P) constant region; also called WT; parental N56 variant (VH0VK0)
Regarding B8, the “Relative KD” value in assay [5] was 1. Also, the “Fold change MFI” value in assay [6] turned out to be 1. Also, in assay [7], the Kd was found to be 5.12 nM, the koff was determined as 0.000715 s⁻¹ and the kon is 140000 M⁻¹ s⁻¹.

B9: VH0/Vκ0 Pro56 (antibody, V domains shown)
VH: QVQLQQSGAELMKPGASVKISCKATGYTFSNYWIEWIKQRPGHGLEWIGEIFPGSGRINFNEKFKGKATFTADTSSDTTYMQLSSLTSADSAVYYCARTKIYGNSFDYWGQGTTLTVSP
VL: DIMMTQSHKFMSTSVGDRVNITCKASQDVGTAVVWYQQKPGQSPKLLIYWASSRHPGVPDRFTGSGSGTDFTLTISNVQSEDLSDYFCQQYSRYPLTFGAGTKLELK
notes: chimeric 5B9 N56 substitution variant; also called N56P
Turning to B9, the “Relative KD” value in assay [5] was 1.48. In addition, in assay [7], the dissociation constant Kd worked out at 7.58 nM, the koff amounted to 0.00105 s⁻¹ and the on-rate (kon) was 138000 M⁻¹ s⁻¹.

B10: VH0/Vκ0 Ala56 (antibody, V domains shown)
VH: QVQLQQSGAELMKPGASVKISCKATGYTFSNYWIEWIKQRPGHGLEWIGEIFPGSGRINFNEKFKGKATFTADTSSDTTYMQLSSLTSADSAVYYCARTKIYGNSFDYWGQGTTLTVSP
VL: DIMMTQSHKFMSTSVGDRVNITCKASQDVGTAVVWYQQKPGQSPKLLIYWASSRHAGVPDRFTGSGSGTDFTLTISNVQSEDLSDYFCQQYSRYPLTFGAGTKLELK
notes: chimeric 5B9 N56 substitution variant; also called N56A
As for B10, the “Relative KD” value in assay [5] came to 0.89. Further, the “Fold change MFI” value in assay [6] is 1.2. In assay [7], this molecule had a Kd of 4.57 nM, a koff of 0.000701 s⁻¹ and a kon of 154000 M⁻¹ s⁻¹.

B11: VH0/Vκ0 Ser56 (antibody, V domains shown)
VH: QVQLQQSGAELMKPGASVKISCKATGYTFSNYWIEWIKQRPGHGLEWIGEIFPGSGRINFNEKFKGKATFTADTSSDTTYMQLSSLTSADSAVYYCARTKIYGNSFDYWGQGTTLTVSP
VL: DIMMTQSHKFMSTSVGDRVNITCKASQDVGTAVVWYQQKPGQSPKLLIYWASSRHSGVPDRFTGSGSGTDFTLTISNVQSEDLSDYFCQQYSRYPLTFGAGTKLELK
notes: chimeric 5B9 N56 substitution variant; also called N56S
With B11, the “Relative KD” value in assay [5] stood at 1.05. The “Fold change MFI” value in assay [6] is 0.73. In assay [7], this molecule displayed a Kd of 4.61 nM, a koff of 0.000701 s⁻¹ and a kon of 152000 M⁻¹ s⁻¹.
